Results reported in patent US20040235127.

Molecular target: Schizochytrium PUFA PKS Orf A protein (carrying nine ACP domains)
Sequence (chain, as listed by the source): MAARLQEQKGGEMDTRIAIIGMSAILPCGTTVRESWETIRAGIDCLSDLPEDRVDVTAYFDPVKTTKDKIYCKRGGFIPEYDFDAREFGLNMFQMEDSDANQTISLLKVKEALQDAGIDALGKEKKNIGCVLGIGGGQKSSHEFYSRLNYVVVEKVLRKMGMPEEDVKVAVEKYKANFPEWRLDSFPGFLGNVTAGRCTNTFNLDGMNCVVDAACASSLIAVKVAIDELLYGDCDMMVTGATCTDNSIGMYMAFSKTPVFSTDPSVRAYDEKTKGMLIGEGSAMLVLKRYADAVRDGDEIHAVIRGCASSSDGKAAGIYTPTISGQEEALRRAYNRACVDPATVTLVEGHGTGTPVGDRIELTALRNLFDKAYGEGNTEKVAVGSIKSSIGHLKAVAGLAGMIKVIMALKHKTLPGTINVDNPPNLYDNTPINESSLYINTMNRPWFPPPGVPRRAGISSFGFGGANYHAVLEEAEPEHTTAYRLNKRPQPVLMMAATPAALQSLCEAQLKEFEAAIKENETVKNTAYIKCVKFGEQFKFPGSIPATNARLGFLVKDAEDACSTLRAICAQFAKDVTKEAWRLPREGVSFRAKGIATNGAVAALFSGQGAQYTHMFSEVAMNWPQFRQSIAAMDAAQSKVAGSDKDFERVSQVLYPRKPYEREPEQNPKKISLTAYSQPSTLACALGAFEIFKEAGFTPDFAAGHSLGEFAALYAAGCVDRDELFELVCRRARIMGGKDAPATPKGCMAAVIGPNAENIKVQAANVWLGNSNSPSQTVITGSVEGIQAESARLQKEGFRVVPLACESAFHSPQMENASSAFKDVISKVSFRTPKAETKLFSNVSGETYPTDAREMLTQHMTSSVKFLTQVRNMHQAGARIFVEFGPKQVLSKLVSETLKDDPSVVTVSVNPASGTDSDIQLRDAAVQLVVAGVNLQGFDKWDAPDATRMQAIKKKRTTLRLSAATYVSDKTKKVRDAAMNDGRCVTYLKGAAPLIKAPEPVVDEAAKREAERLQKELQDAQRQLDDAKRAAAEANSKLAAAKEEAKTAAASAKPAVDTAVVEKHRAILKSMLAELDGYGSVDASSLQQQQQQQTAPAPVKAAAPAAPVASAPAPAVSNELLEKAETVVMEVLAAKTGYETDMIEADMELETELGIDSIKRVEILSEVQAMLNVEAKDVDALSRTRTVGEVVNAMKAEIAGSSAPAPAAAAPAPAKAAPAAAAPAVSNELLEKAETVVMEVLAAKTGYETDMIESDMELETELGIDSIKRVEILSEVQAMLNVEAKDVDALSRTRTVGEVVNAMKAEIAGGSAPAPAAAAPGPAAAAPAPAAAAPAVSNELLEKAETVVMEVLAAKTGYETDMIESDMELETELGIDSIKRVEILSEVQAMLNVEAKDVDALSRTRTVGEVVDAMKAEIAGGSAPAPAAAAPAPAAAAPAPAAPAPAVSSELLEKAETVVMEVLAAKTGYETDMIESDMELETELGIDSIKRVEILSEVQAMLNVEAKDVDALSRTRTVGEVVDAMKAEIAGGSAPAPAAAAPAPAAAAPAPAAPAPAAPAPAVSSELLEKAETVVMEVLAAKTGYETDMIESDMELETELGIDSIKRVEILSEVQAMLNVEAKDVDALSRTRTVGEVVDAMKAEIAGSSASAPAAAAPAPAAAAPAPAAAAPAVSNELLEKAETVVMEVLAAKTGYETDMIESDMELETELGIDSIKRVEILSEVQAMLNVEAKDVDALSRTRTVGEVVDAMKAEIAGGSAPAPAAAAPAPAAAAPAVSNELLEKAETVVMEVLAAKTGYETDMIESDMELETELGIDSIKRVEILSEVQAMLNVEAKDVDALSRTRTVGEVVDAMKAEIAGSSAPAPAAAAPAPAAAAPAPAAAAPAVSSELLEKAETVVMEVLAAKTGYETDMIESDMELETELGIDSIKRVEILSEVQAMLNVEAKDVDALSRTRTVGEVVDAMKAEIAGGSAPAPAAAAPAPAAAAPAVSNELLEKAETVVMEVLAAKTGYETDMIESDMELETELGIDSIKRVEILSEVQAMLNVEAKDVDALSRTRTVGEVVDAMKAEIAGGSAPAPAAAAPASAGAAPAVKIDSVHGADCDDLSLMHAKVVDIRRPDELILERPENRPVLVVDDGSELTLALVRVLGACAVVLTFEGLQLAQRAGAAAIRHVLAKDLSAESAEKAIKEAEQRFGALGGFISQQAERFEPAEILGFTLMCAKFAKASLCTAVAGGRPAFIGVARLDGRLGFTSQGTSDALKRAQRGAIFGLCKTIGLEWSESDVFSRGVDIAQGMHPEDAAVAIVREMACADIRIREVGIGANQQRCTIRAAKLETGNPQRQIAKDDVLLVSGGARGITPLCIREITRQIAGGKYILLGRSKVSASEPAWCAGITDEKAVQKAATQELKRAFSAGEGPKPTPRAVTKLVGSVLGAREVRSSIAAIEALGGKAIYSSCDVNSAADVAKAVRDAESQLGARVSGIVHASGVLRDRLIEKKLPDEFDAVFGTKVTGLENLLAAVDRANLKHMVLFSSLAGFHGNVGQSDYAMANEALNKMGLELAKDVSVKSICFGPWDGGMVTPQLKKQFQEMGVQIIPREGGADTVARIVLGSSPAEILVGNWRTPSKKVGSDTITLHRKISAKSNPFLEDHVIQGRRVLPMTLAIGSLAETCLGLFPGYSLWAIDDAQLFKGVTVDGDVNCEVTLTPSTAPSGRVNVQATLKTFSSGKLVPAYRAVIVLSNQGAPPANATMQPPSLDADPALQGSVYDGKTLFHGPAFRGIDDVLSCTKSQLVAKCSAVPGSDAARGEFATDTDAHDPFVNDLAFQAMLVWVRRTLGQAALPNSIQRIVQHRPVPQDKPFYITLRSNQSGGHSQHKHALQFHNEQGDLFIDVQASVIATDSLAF

B1: sfp PPTase (phosphopantetheine transferase derived from Bacillus subtilis) (protein)
chain: MKIYGIYMDRPLSQEENERFMSFISPEKREKCRRFYHKEDAHRTLLGDVLVRSVISRQYQLDKSDIRFSTQEYGKPCIPDLPDAHFNISHSGRWVICAFDSQPIGIDIEKTKPISLEIAKRFFSKTEYSDLLAKDKDEQTDYFYHLWSMKESFIKQEGKGLSLPLDSFSVRLHQDGQVSIELPDSHSPCYIKTYEVDPGYKMAVCAAHPDFPEDITMVSYEELL
DHA production in E. coli co-expressing the PPTase with Orf A, B*, C (FAME analysis by gas-liquid chromatography): Co-expression of the sfp construct in cells expressing the Orf A, B*, C proteins, under certain conditions, resulted in DHA production.
